Test results taken from patent publication US20220228142A1 (VERTEX PHARMACEUTICALS, published 2022).

Biological target: 53BP1 (p53-binding protein 1) (human, UniProt Q12888 1-1972, limits assumed)
Assay: cell-based or functional assay

53BP1 (p53-binding protein 1), sequence (Q12888 whole entry): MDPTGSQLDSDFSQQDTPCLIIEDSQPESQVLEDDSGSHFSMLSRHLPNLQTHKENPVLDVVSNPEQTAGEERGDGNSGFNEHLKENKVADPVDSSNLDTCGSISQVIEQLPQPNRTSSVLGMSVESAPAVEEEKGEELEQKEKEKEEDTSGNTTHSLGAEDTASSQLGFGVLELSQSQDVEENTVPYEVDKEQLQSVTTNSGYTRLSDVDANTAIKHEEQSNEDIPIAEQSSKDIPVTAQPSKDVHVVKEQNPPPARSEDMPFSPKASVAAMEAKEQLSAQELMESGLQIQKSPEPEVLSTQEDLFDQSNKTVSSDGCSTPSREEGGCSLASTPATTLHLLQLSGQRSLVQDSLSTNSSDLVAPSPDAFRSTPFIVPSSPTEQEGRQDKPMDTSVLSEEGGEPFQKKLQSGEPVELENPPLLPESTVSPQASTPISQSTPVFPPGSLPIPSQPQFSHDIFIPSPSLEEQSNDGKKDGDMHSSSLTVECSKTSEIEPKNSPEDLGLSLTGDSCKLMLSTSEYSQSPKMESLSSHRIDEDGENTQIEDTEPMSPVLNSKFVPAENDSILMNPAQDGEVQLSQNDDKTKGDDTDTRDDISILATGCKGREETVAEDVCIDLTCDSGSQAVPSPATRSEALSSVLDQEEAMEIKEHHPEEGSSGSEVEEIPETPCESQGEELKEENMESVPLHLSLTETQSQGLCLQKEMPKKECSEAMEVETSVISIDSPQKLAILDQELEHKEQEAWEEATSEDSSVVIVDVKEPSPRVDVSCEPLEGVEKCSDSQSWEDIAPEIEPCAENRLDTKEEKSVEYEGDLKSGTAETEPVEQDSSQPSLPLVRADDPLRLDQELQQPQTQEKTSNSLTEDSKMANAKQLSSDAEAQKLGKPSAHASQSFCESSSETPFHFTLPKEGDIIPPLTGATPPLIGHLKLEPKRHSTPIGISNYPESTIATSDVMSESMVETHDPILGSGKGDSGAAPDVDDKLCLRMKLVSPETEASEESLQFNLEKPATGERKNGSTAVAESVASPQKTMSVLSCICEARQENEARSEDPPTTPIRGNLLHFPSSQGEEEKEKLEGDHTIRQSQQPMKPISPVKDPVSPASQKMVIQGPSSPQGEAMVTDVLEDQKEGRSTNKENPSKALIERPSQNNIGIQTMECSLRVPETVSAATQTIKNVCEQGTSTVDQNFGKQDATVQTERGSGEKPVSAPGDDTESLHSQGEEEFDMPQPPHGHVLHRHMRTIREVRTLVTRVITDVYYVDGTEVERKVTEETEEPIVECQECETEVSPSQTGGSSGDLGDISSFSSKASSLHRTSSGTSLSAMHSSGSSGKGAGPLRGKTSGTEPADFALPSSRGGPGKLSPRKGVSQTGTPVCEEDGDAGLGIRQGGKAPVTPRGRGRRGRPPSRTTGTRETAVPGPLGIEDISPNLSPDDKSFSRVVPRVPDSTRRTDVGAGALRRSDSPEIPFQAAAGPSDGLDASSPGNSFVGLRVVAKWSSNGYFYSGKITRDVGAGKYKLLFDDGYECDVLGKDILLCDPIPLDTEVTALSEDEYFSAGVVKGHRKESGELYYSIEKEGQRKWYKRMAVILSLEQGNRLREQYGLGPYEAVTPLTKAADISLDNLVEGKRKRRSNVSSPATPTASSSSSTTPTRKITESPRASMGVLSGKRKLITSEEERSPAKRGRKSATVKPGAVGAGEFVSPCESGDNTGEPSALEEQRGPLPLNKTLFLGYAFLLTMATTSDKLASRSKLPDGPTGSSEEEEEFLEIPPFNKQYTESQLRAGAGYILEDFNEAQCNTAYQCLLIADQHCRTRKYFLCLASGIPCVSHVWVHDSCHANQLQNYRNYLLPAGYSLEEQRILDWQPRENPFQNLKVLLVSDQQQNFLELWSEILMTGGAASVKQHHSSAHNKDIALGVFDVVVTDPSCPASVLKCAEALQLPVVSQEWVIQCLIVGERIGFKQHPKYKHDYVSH

- INDELs due to NHEJ repair (+/-1 nt), T107 RNP+AAV.310, NGS: 1.3 fold reduction
B1: i53 polypeptide (polypeptide inhibitor of 53BP1) (designed binder)
chain: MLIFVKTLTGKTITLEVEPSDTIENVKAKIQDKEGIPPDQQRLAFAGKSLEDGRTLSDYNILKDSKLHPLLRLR
